“And” between values parts separate entries of the source, which are not always exact repeats. Equal values may be shown once.
Key:
[1] = target: T1, C-terminal truncated human Tau (Tau(1-421)) (human, UniProt P10636 1-738); assay: Fab ELISA
T1 construct: also called 1-421 (2N4R)
Procedure: (§1) Half-area ELISA plates (Costar™) were coated overnight at 4° C. with 25 μL per well of 0.5 μg/mL r-Tau or p-Tau. The plates were washed three times with PBST using a BioTek® plate washer. The plates were then blocked for one hour at room temperature with 100 μL per well of PBSA. After washing three times with PBST, the periplasmically-expressed Fabs were added ([…]) and the plates were incubated for one hour. The plates were subsequently washed three times with PBST, and 25 μL per well of PBSA containing a 1:5,000 dilution of HRP-conjugated rabbit anti-human kappa (obtained from Bethyl Laboratories) was added. The plates were incubated at room temperature for 30 minutes, then washed three times with PBST. The plates were developed by adding 25 μL per well of TMB substrate (obtained from Thermo Fisher) and quenched with 2N H₂SO₄. The signal was quantified on a BioTek® plate reader at A₄₅₀. Wells with signal greater than 5-fold over background for both r-Tau and p-Tau were considered positive and the clones were re-arrayed from the primary culture for confirmation of binding (by repeat of ELISA) and sequencing of the variable regions.
(§2) ELISAs were performed essentially as described above, but coating was performed using 1 μg/mL of each recombinant Tau species and using a 1:1 dilution (in PBS with 0.1% BSA, 0.05% Tween®) of Fab containing supernatant. The results of the ELISAs, showing Fab binding to cyno Tau and mouse Tau, as well as binding to phosphorylated full-length human Tau and the human Tau isoforms, are shown in Table 1 below.

[2] = target: T2, N-terminal truncated human Tau (Tau(50-441)) (human, UniProt P10636 50-758); assay: Fab ELISA
T2 construct: also called 50-441 (2N4R)
Procedure: as §1, §2

[3] = target: T3, full-length human Tau (Tau441; 2N4R), recombinant (human, UniProt P10636 1-758); assay: Fab ELISA
T3 construct: made in E. coli, His6-Smt3 tag removed; biotinylated through amines for Octet and phage work; also called r-Tau; recombinant Tau
Procedure: as §1, §2

[4] = target: human Tau splice isoform 2N3R (Tau410) (human, UniProt P10636 1-758); assay: Fab ELISA
Procedure: as §1, §2

[5] = target: T4, cynomolgus monkey Tau (cynomolgus monkey, UniProt P57786 2-459 (rhesus entry)); assay: Fab ELISA
T4 construct: also called cyno Tau; cyno-Tau
Procedure: as §1, §2

[6] = target: mouse Tau (mouse, UniProt P10637 2-733); assay: Fab ELISA
Procedure: as §1, §2

[7] = target: human Tau splice isoform 1N4R (Tau412) (human, UniProt P10636 1-758); assay: Fab ELISA
Procedure: as §1, §2

[8] = target: T5, hyperphosphorylated recombinant human Tau441 (p-Tau) (human, UniProt P10636 1-758, phosphorylated in vitro with PKA and GSK3beta; sites not listed); assay: Fab ELISA
T5 construct: also called p-Tau (2N4R); phosphorylated r-Tau
Procedure: as §1, §2

[9] = target: human Tau splice isoform 1N3R (Tau381) (human, UniProt P10636 1-758); assay: Fab ELISA
Procedure: as §1, §2

[10] = target: human Tau splice isoform 0N4R (Tau383) (human, UniProt P10636 1-758); assay: Fab ELISA
Procedure: as §1, §2

[11] = target: human Tau splice isoform 0N3R (Tau352) (human, UniProt P10636 1-758); assay: Fab ELISA
Procedure: as §1, §2

[12] = target: T3, full-length human Tau (Tau441; 2N4R), …; assay: SPR Biacore
[13] = target: T3, full-length human Tau (Tau441; 2N4R), …; assay: Octet binning on biotin-r-Tau; competitor 1D10
Procedure: (§3) Epitope binning assays were performed using a FortéBio® Octet® RED384 instrument using FortéBio® Streptavidin biosensors. Biotinylated recombinant Tau was diluted to a concentration of 2 μg/mL in kinetic buffer (obtained from FortéBio®) and captured onto individual biosensors for 1 minute. A baseline was then established for 1 minute in kinetic buffer. The loaded biosensors were dipped into 10 μg/mL of the first chimeric IgG antibody until signal saturation, followed by dipping into 1 μg/mL of a second antibody. The binding for the second antibody was normalized to its total binding in the absence of the first antibody.

[14] = target: T3, full-length human Tau (Tau441; 2N4R), …; assay: SPR Biacore, IgG captured, r-Tau injected
Procedure: The affinity of chimeric IgG antibodies 1C7, 1A1, 1A5, 1D10, and 1G7 for recombinant Tau was determined by surface plasmon resonance using a Biacore™ T200 instrument. Biacore™ Series S CM5 sensor chips were immobilized with monoclonal mouse anti-human IgG (Fc) antibody (human antibody capture kit from GE Healthcare). 1 μg/mL of antibody was captured for 1 minute on each flow cell and serial 3-fold dilutions of recombinant Tau were injected at a flow rate of […]. Each sample was analyzed with a 3-minute association and a 10-minute dissociation. After each injection the chip was regenerated using 3M MgCl₂. Binding response was corrected by subtracting the RU from a flow cell capturing an irrelevant IgG at similar density. A 1:1 Languir model of simultaneous fitting of kₒₙ and koff was used for kinetics analysis.

[15] = target: T3, full-length human Tau (Tau441; 2N4R), …; assay: Octet binning on biotin-r-Tau; competitor 1C7
Procedure: as §3

[16] = target: T3, full-length human Tau (Tau441; 2N4R), …; assay: Octet binning on biotin-r-Tau; competitor 1A5
Procedure: as §3

[17] = target: T3, full-length human Tau (Tau441; 2N4R), …; assay: Octet binning on biotin-r-Tau; row antibody Ab107 (anti-BACE1 control)
Procedure: as §3

[18] = target: T3, full-length human Tau (Tau441; 2N4R), …; assay: Octet binning on biotin-r-Tau; competitor 1G7
Procedure: as §3

T3 sequence (P10636 other isoform, or with tags, fused parts or gaps limits assumed): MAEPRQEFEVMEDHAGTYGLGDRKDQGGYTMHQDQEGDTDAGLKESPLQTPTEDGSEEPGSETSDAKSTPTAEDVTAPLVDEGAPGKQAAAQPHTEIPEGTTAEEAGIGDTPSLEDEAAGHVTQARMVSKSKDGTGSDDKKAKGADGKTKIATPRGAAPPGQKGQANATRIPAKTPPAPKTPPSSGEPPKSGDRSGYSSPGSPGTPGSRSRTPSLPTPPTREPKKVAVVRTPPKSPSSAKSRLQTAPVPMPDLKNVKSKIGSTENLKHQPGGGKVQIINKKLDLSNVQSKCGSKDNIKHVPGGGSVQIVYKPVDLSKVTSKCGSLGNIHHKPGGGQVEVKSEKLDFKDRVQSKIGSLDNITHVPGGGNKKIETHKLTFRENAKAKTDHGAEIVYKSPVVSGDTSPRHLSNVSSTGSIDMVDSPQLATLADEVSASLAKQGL
human Tau splice isoform 1N4R (Tau412), sequence (P10636 other isoform, or with tags, fused parts or gaps limits assumed): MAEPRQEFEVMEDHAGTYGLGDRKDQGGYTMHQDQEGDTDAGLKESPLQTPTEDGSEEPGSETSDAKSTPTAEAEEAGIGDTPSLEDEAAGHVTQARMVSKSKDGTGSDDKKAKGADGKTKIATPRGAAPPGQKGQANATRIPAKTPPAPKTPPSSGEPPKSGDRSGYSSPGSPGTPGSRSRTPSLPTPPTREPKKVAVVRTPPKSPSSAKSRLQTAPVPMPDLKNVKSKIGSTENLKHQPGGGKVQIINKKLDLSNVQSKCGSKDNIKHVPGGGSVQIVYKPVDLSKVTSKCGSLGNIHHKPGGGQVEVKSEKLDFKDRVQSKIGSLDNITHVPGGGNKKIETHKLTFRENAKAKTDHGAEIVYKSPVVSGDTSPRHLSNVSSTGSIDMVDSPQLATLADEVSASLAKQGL
human Tau splice isoform 0N4R (Tau383), sequence (P10636 other isoform, or with tags, fused parts or gaps limits assumed): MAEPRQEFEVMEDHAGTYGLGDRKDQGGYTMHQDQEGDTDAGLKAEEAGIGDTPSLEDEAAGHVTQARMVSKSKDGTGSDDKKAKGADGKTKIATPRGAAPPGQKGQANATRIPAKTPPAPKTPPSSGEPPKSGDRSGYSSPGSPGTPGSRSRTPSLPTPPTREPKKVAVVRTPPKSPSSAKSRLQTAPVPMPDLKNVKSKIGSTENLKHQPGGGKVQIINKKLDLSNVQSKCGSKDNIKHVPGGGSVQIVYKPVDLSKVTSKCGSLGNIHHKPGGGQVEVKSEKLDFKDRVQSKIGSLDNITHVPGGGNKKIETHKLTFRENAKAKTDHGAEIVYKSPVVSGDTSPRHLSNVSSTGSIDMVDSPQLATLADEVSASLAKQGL
human Tau splice isoform 1N3R (Tau381), sequence (P10636 other isoform, or with tags, fused parts or gaps limits assumed): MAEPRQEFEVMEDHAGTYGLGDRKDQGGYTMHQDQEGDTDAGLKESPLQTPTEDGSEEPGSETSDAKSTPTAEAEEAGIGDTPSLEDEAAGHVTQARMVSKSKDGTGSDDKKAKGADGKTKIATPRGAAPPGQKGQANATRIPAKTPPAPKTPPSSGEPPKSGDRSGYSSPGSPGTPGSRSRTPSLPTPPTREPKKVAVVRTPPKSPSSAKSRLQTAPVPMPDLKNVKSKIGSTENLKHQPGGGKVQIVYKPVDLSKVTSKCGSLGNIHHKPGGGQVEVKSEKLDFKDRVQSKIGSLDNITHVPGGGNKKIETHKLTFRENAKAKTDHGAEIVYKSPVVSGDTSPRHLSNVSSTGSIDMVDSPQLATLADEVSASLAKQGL
human Tau splice isoform 2N3R (Tau410), sequence (P10636 other isoform, or with tags, fused parts or gaps limits assumed): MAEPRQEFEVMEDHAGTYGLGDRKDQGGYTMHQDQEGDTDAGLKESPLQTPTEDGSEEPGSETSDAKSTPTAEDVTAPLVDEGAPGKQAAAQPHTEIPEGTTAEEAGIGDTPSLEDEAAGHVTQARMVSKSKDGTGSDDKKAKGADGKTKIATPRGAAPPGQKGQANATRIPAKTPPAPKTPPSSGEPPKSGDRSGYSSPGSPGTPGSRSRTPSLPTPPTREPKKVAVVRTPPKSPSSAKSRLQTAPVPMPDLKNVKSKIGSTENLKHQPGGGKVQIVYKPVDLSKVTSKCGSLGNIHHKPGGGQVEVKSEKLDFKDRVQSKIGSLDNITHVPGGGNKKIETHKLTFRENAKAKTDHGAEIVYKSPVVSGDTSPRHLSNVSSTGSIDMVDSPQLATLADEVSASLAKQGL
human Tau splice isoform 0N3R (Tau352), sequence (P10636 other isoform, or with tags, fused parts or gaps limits assumed): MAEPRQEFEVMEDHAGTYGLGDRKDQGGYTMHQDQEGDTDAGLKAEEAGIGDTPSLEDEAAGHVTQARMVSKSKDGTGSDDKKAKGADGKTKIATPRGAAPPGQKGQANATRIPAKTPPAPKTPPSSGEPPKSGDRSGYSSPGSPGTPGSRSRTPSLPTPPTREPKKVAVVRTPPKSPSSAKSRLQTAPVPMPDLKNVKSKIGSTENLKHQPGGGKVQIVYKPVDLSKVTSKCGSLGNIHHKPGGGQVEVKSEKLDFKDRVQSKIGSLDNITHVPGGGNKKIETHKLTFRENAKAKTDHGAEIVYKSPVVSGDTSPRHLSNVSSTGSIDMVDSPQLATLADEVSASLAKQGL
mouse Tau, sequence (P10637 other isoform, or with tags, fused parts or gaps limits assumed): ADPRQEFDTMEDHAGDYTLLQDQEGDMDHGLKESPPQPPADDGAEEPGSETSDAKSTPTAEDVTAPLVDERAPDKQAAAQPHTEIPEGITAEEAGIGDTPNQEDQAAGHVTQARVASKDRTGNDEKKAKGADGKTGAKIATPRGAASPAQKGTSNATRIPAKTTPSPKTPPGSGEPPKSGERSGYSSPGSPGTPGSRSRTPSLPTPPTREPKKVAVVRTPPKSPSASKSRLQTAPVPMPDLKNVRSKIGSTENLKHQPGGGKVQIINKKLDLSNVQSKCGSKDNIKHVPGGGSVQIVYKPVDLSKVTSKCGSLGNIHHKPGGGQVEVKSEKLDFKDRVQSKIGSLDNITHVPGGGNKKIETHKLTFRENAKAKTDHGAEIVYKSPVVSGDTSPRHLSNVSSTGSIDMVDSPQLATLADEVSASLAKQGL
T4 sequence (P57786 other isoform, or with tags, fused parts or gaps limits assumed): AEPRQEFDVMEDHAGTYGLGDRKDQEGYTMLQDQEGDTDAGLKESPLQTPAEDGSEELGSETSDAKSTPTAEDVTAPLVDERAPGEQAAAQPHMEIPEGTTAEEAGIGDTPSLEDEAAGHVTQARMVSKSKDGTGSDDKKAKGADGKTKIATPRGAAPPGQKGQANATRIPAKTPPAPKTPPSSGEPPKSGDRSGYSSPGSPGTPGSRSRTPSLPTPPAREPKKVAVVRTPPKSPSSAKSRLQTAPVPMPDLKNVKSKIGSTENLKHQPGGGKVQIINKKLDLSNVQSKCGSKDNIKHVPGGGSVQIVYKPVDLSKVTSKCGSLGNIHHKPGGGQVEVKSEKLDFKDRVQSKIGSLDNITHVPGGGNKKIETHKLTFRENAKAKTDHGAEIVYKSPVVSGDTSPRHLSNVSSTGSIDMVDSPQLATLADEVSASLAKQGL
T1 sequence (P10636 other isoform, or with tags, fused parts or gaps limits assumed): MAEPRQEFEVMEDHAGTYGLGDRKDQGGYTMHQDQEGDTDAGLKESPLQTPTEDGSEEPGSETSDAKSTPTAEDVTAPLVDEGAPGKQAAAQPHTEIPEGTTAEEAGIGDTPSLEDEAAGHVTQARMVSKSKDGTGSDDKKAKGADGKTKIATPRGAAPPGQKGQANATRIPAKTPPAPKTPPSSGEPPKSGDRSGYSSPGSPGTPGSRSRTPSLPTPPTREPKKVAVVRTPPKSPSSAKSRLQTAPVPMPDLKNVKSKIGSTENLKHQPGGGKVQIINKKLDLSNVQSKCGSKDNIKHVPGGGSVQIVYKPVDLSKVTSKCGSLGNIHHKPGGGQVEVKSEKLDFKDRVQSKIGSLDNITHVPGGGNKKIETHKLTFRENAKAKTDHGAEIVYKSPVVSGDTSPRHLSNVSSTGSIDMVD
T2 sequence (P10636 other isoform, or with tags, fused parts or gaps limits assumed): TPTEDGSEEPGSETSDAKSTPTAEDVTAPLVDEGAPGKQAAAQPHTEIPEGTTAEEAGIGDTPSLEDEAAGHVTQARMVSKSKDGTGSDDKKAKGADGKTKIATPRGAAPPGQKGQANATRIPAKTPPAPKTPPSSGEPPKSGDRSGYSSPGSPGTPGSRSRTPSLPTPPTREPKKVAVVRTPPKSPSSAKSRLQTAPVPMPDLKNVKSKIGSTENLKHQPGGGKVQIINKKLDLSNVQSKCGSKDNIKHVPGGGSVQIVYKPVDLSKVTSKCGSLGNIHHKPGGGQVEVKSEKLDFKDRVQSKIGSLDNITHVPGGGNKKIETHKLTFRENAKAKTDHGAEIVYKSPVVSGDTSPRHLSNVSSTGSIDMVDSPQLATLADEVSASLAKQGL

| Binder | A450 avg. [1] | A450 avg. [2] | A450 avg. [3] | A450 avg. [4] | A450 avg. [5] | A450 [6] | A450 avg. [6] | A450 avg. [7] | A450 avg. [8] | A450 avg. [9] | A450 avg. [10] | A450 avg. [11] | Kd [12] | normalized binding of second antibody [13] | Kd [14] [nM] | normalized binding of second antibody [15] | normalized binding of second antibody [16] | normalized binding of second antibody [17] | normalized binding of second antibody [18] |
| --- | --- | --- | --- | --- | --- | --- | --- | --- | --- | --- | --- | --- | --- | --- | --- | --- | --- | --- | --- |
| Clone 1C7 Fab (Fab, V domains shown, crude periplasmic Fab; mouse V regions joined to human CH1 and human kappa constant) VH: EVKLVESGGGLVKPGGSLKLSCAASGFTFSSYGMSWVRQTPEKRLEWVASISGDGGSYIHYADSVKGRFTISRDSAKNTLYLQMSSLRSEDTALYYCARLPYWGQGTLVTVSA VL: DIVMTQSPSSLTVTAGEKVTMSCKSSQSLLNSGNQKNYLTWYQQKPGQPPKLLIYWASTRESGVPDRFTGSGSGTDFTLTISNVQSEDLAEYFCQQYNSYPLTFGAGTKLELKR | 2.12 | 2.3 | 2.73 | 2.75 | 2.31 | 0.06 | 0.06 | 2.69 | 2.24 | 2.7 | 2.66 | 2.4 |  |  |  |  |  |  |  |
| chimeric IgG clone 1C7 (antibody, V domains shown, mouse-human chimeric IgG from HEK293; also called 1C7.IgG; anti-Tau^1C7) VH: EVKLVESGGGLVKPGGSLKLSCAASGFTFSSYGMSWVRQTPEKRLEWVASISGDGGSYIHYADSVKGRFTISRDSAKNTLYLQMSSLRSEDTALYYCARLPYWGQGTLVTVSA VL: DIVMTQSPSSLTVTAGEKVTMSCKSSQSLLNSGNQKNYLTWYQQKPGQPPKLLIYWASTRESGVPDRFTGSGSGTDFTLTISNVQSEDLAEYFCQQYNSYPLTFGAGTKLELKR |  |  |  |  |  |  |  |  |  |  |  |  | 0.8 nM and 0.44 nM | 0.82 | 0.2 | 0.03 | 0.88 | 1 | 0.84 |
| Clone 1D10 Fab (Fab, V domains shown, crude periplasmic Fab; mouse V regions joined to human CH1 and human kappa constant) VH: EVQLQQSGAELVRPGASVKLSCTASGFNIKDSLMHWMKQRPEQGLEWIGWIDPEDGETKYAPKFQDKATLTADTSSNAAYLQLSSLTSEDTAIYYCVRGDWDGGYWGQGTTLTVSS VL: not shown | 0.806 | 1.13 | 1.47 | 1.46 | 0.867 |  | 1.1 | 0.939 | 1.19 | 1.49 | 1.19 | 0.323 |  |  |  |  |  |  |  |
| Clone 1A1 Fab (Fab, V domains shown, crude periplasmic Fab; mouse V regions joined to human CH1 and human kappa constant) VH: EVQLQQSGAELVRPGASVRLSCTASGFNIKDSLMHWLKQRPEQGLEWIGWIDPEDGETKYAPKFQDKATITADTSSNTAYLQLSSLTSEDTAIYYCTRRDWEGPWGQGTLVTVSA VL: not shown | 1.52 | 1.8 | 2.5 | 2.52 | 1.81 |  | 1.95 | 2.39 | 2.09 | 2.59 | 2.37 | 1.54 |  |  |  |  |  |  |  |
| Clone 1G7 Fab (Fab, V domains shown, crude periplasmic Fab; mouse V regions joined to human CH1 and human kappa constant) VH: EVQLQQSGAEVVRPGASVKLSCTTSGFNIKDSLMHWLKQRPEQGLEWIGWIDPEDGETKYAPKFQDKATITADTSSNTAYLQLSSLTSGDTAIYYCARRDWEGPWGQGTLVTVSA VL: not shown | 1.23 | 1.68 | 2.04 | 2 | 1.53 |  | 1.51 | 1.8 | 1.61 | 2.16 | 1.88 | 0.725 |  |  |  |  |  |  |  |
| Clone 1A5 Fab (Fab, V domains shown, crude periplasmic Fab; mouse V regions joined to human CH1 and human kappa constant) VH: EVQLQQSGAELVRPGASVKLSCTASGFNIKDSLIHWVKQRPEQGLEWIGWIDPEDGETKYAPKFQDKATKTADTSSNTAYLQLSSLTSEDTAIYYCASGEWDYWGQGTSVTVSS VL: not shown | 1.64 | 2.08 | 2.57 | 2.54 | 1.9 |  | 2.07 | 2.33 | 2.08 | 2.58 | 2.48 | 1.19 |  |  |  |  |  |  |  |

Source: patent US20200216522A1 (DENALI THERAPEUTICS, published 2020)
